Experimental data published in US20090221680, “Aptamers that bind thrombin with high affinity” (published 2009).

Assays:
[1] = target: thrombin (alpha-thrombin) (Homo sapiens, UniProt P00734;P00734 P00734:315-363,P00734:364-622); assay: filter; 10 nM thrombin
prothrombin = prothrombin (Homo sapiens, UniProt P00734 P00734:44-622); assay: filter; 50 nM prothrombin; settings: tags: Athens Research
Description: Dot blot binding assays were performed throughout the selections to monitor the protein binding affinity of the pools. Trace ³²P-labeled RNA was combined with a dilution series of human Thrombin (1 nM-1000 nM) and incubated at room temperature for 30 minutes in 1×DPBS (w/ Ca²⁺ and Mg²⁺) (Gibco, Catalog #14040, Invitrogen, Carlsbad, Calif.) plus 0.1 mg/ml BSA in a final volume of 30 μl. The binding reactions were analyzed by nitrocellulose filtration using a Minifold I dot-blot, 96-well vacuum filtration manifold (Schleicher & Schuell, Keene, N.H.). A three-layer filtration medium was used, consisting (from top to bottom) of Protran nitrocellulose (Schleicher & Schuell, Keene, N.H.), Hybond-P nylon (Amersham Biosciences, Piscataway, N.J.) and GB002 gel blot paper (Schleicher & Schuell, Keene, N.H.). RNA that is bound to protein is captured on the nitrocellulose filter, whereas the non-protein bound RNA is captured on the nylon filter. The gel blot paper was included simply as a supporting medium for the other filters. Following filtration, the filter layers were separated, dried and exposed on a phosphor screen (Amersham Biosciences, Piscataway, N.J.) and quantified using a Storm 860 Phosphorimager® blot imaging system (Amersham Biosciences, Piscataway, N.J.).
Based on pool binding monitored throughout the selections as described above, Round 9 Pools from both Selection #2 and #3 were also cloned using a TOPO TA Cloning kit (Invitrogen, Carlsbad, Calif.) according to manufacturer's instructions, and sequenced. Of the 136 sequences obtained from Round 9 of both selections, 130 unique sequences were selected for assaying in a single-point dot blot screen against thrombin and prothrombin to test for selective binding to thrombin. Clones were ordered from IDT (Coralville, Iowa) at 25 μmole synthesis scale. Clone transcripts were 5′ end labeled with γ̅³²P ATP and spin purified with Centrisep columns (Princeton Separations, Adelphia, N.J.) to remove excess label. Trace amounts of labeled clone were incubated with +/−10 nM Thrombin (or +/−50 nM prothrombin) and 0.1 mg/ml BSA in a total volume of 30 μl 1×DPBS (w/ Ca²⁺ and Mg²⁺) (Gibco, Catalog #14040, Invitrogen, Carlsbad, Calif.) for 30 minutes. Post incubation, the binding reaction applied the dot-blot binding assay apparatus previously described.

Binder | binding signal [1] [% bound] | binding signal (prothrombin) [% bound]
TCCCGATCGAGAGTGGTATTTGTTTTCTGGGTGGCTGAGGATCGATC (ssDNA) [AMX(398)_F5] | 21.3 | 19.4
TCCCGTCGATTCGGTATGGTTTCGTTTCTGGGTGGCTGAGGATCGATC (ssDNA) [AMX(399)_B11] | 18.7 | 18.2
TCTCATTCGTTCCGGGGTATTTAGTGGGTCGGGTGGCTGAGGATCGATC (ssDNA) [AMX(399)_C10] | 35.4 | 34.3
TCCCTATCGACCGGGGTTCTTTCGTGGTTCGGGTGGCTGAGGATCGATC (ssDNA) [AMX(398)_E8] | 26.4 | 26.7
TCCCATCGATTTGTCCTCAGAGGTTGGCGTGGGTGGCTGAGGATCGATC (ssDNA) [AMX(399)_B12] | 24.2 | 15.3
TCCCGTCGATCAGGGGTAATTTGCTGGTGGTGGGTGGCTGAGGATCGATC (ssDNA) [AMX(399)_C8] | 36.8 | 33.8
TTCCTGTCGATAAGGGGTATTATAGTGGTGTGGGTGGCTGAGGATCGATC (ssDNA) [AMX(399)_C9] | 11.2 | 10.9
TCCCTTGATCCGGTGGTAGTTTTATTGGTGCGGGTGGCTGAGGATCGATC (ssDNA) [AMX(398)_F6] | 23.9 | 24.6
TCCCTTGATCTGGGGTGCGTTATTGTGGTTCGGGTGGCTGAGGATCGATC (ssDNA) [AMX(398)_E7] | 27.9 | 20.3
TCCCATCGAGTCGTGGTGTTTTGTTGGCCTGGGTGGCTGAGGATCGATC (ssDNA) [AMX(398)_F2] | 8.76 | 8.81
TCCCGGATCTGTGGTAGGTTTGTTGGGTTGGGTGGCTGAGGATCGATC (ssDNA) [AMX(398)_E12] | 40.4 | 39.9
TCCCGATTGATTCTGGGAGGTTTGGTTCTGGGTGGCTGAGGATCGATC (ssDNA) [AMX(399)_D4] | 10.4 | 9.02
TCCCATTGATCCGGGGTGGTTTTCTGGTTTGGGTGGCTGAGGATCGATC (ssDNA) [AMX(399)_B10] | 24.4 | 23.6
TCCCGCGATCTCTGGGGTAACGTTTTGGTGTGGGTGGCTGAGGATCGATC (ssDNA) [AMX(399)_D3] | 21.7 | 25.3
TCCCGATCTATCCGGGGTACATTTGTGGTTTGGGTGGCTGAGGATCGATC (ssDNA) [AMX(399)_C12] | 18.7 | 17.2
TCCCGAGCGATCGGGGTGGTTTTTTGGGAGTGGGTGGCTGAGGATCGATC (ssDNA) [AMX(399)_C7] | 6.8 | 6.94
TCCTGTCGATCCCTACGGGTAGTGTTGGTTTGGGTGGCTGAGGATCGATC (ssDNA) [AMX(399)_B9] | 14.7 | 14.3
TCCCGCATTGAATAGGACTCAGGGATGGTGTGGGTGGCTGAGGATCGATC (ssDNA) [AMX(399)_D6] | 22.7 | 22
